This note sets out measurements from the Human Domainome abundance scans (Beltran et al. 2025).

± gives the uncertainty stated by the source.

Sequences and labels used below:
B1: TOX high mobility group box family member 3, residues 256 to 323; numbered along this chain, O15405 (parent)
chain: QKPVSAYALFFRDTQAAIKGQNPNATFGEVSKIVASMWDSLGEEQKQVYKRKTEAAKKEYLKALAAYR

Variants of B1 are the subject of the data set. As to the kind of experiment: abundance fitness (aPCA) (normalised: wild type 0, dead -1); higher = more abundant; growth selection in yeast, the domain comes from the species named. As to conditions: Homo sapiens.
As for QKPVSAYALFFRDTQAAIKGQNPNATFGEVSKIVAYMWDSLGEEQKQVYKRKTEAAKKEYLKALAAYR [S36Y], the abundance fitness is -0.182 ± 0.08.
The result for QKPVSAYALFFRDTQAAIKGQNPNATFGEVSKIVADMWDSLGEEQKQVYKRKTEAAKKEYLKALAAYR [S36D] reads -0.03 ± 0.096.
As to QKPVSAYALFFRDTQAAIKGQNPNATFGEVSKIVAQMWDSLGEEQKQVYKRKTEAAKKEYLKALAAYR [S36Q], the abundance fitness came to 0.164 ± 0.065.
Regarding QKPVSAYALFFRDTQAAIKGQNPNATFGEVSKIVAGMWDSLGEEQKQVYKRKTEAAKKEYLKALAAYR [S36G], the abundance fitness is 0.01 ± 0.053.
For the variant QKPVSAYALFFRDTQAAIKGQNPNATFGEVSKIVAIMWDSLGEEQKQVYKRKTEAAKKEYLKALAAYR [S36I], the abundance fitness is -0.191 ± 0.094.
Turning to QKPVSAYALFFRDTQAAIKGQNPNATFGEVSKIVAVMWDSLGEEQKQVYKRKTEAAKKEYLKALAAYR [S36V], the abundance fitness is -0.218 ± 0.065.
On to QKPVSAYALFFRDTQAAIKGQNPNATFGEVSKIVACMWDSLGEEQKQVYKRKTEAAKKEYLKALAAYR [S36C], for which the abundance fitness was -0.317 ± 0.24.
QKPVSAYALFFRDTQAAIKGQNPNATFGEVSKIVAEMWDSLGEEQKQVYKRKTEAAKKEYLKALAAYR [S36E]: the abundance fitness came out at 0.044 ± 0.042.
In the case of QKPVSAYALFFRDTQAAIKGQNPNATFGEVSKIVAPMWDSLGEEQKQVYKRKTEAAKKEYLKALAAYR [S36P], the abundance fitness is -0.587 ± 0.12.
In the case of QKPVSAYALFFRDTQAAIKGQNPNATFGEVSKIVAHMWDSLGEEQKQVYKRKTEAAKKEYLKALAAYR [S36H], the abundance fitness was -0.065 ± 0.11.
The result for QKPVSAYALFFRDTQAAIKGQNPNATFGEVSKIVATMWDSLGEEQKQVYKRKTEAAKKEYLKALAAYR [S36T] reads 0.067 ± 0.067; that for QKPVSAYALFFRDTQAAIKGQNPNATFGEVSKIVALMWDSLGEEQKQVYKRKTEAAKKEYLKALAAYR [S36L], -0.344 ± 0.052.
In the case of QKPVSAYALFFRDTQAAIKGQNPNATFGEVSKIVARMWDSLGEEQKQVYKRKTEAAKKEYLKALAAYR [S36R], the abundance fitness was -0.114 ± 0.056.
Consider QKPVSAYALFFRDTQAAIKGQNPNATFGEVSKIVAFMWDSLGEEQKQVYKRKTEAAKKEYLKALAAYR [S36F], for which the abundance fitness was -0.242 ± 0.12.
For QKPVSAYALFFRDTQAAIKGQNPNATFGEVSKIVANMWDSLGEEQKQVYKRKTEAAKKEYLKALAAYR [S36N], the abundance fitness was -0.054 ± 0.076.
QKPVSAYALFFRDTQAAIKGQNPNATFGEVSKIVAAMWDSLGEEQKQVYKRKTEAAKKEYLKALAAYR [S36A]: the abundance fitness amounted to 0.005 ± 0.036.
The result for QKPVSAYALFFRDTQAAIKGQNPNATFGEVSKIVAMMWDSLGEEQKQVYKRKTEAAKKEYLKALAAYR [S36M] reads -0.097 ± 0.057.
The result for QKPVSAYALFFRDTQAAIKGQNPNATFGEVSKIVAWMWDSLGEEQKQVYKRKTEAAKKEYLKALAAYR [S36W] reads -0.671 ± 0.13.
As to QKPVSAYALFFRDTQAAIKGQNPNATFGEVSKIVVSMWDSLGEEQKQVYKRKTEAAKKEYLKALAAYR [A35V], the abundance fitness is -0.727 ± 0.19.
As for QKPVSAYALFFRDTQAAIKGQNPNATFGEVSKIVISMWDSLGEEQKQVYKRKTEAAKKEYLKALAAYR [A35I], the abundance fitness is -0.123 ± 0.12.
The result for QKPVSAYALFFRDTQAAIKGQNPNATFGEVSKIVMSMWDSLGEEQKQVYKRKTEAAKKEYLKALAAYR [A35M] reads -0.22 ± 0.09.
QKPVSAYALFFRDTQAAIKGQNPNATFGEVSKIVSSMWDSLGEEQKQVYKRKTEAAKKEYLKALAAYR [A35S]: the abundance fitness was -0.037 ± 0.05.
As for QKPVSAYALFFRDTQAAIKGQNPNATFGEVSKIVHSMWDSLGEEQKQVYKRKTEAAKKEYLKALAAYR [A35H], the abundance fitness was 0.001 ± 0.1.
The result for QKPVSAYALFFRDTQAAIKGQNPNATFGEVSKIVESMWDSLGEEQKQVYKRKTEAAKKEYLKALAAYR [A35E] reads -0.015 ± 0.078.
With QKPVSAYALFFRDTQAAIKGQNPNATFGEVSKIVYSMWDSLGEEQKQVYKRKTEAAKKEYLKALAAYR [A35Y], the abundance fitness is -0.197 ± 0.13.
Turning to QKPVSAYALFFRDTQAAIKGQNPNATFGEVSKIVGSMWDSLGEEQKQVYKRKTEAAKKEYLKALAAYR [A35G], the abundance fitness was -0.122 ± 0.056.
The result for QKPVSAYALFFRDTQAAIKGQNPNATFGEVSKIVRSMWDSLGEEQKQVYKRKTEAAKKEYLKALAAYR [A35R] reads 0.12 ± 0.048; that for QKPVSAYALFFRDTQAAIKGQNPNATFGEVSKIVQSMWDSLGEEQKQVYKRKTEAAKKEYLKALAAYR [A35Q], -0.01 ± 0.071; that for QKPVSAYALFFRDTQAAIKGQNPNATFGEVSKIVKSMWDSLGEEQKQVYKRKTEAAKKEYLKALAAYR [A35K], -0.024 ± 0.13.
For the variant QKPVSAYALFFRDTQAAIKGQNPNATFGEVSKIVCSMWDSLGEEQKQVYKRKTEAAKKEYLKALAAYR [A35C], the abundance fitness is -0.275 ± 0.088.
As to QKPVSAYALFFRDTQAAIKGQNPNATFGEVSKIVWSMWDSLGEEQKQVYKRKTEAAKKEYLKALAAYR [A35W], the abundance fitness was -0.16 ± 0.076.
In the case of QKPVSAYALFFRDTQAAIKGQNPNATFGEVSKIVTSMWDSLGEEQKQVYKRKTEAAKKEYLKALAAYR [A35T], the abundance fitness was -0.066 ± 0.08.
As for QKPVSAYALFFRDTQAAIKGQNPNATFGEVSKIVPSMWDSLGEEQKQVYKRKTEAAKKEYLKALAAYR [A35P], the abundance fitness is -0.826 ± 0.12.
The result for QKPVSAYALFFRDTQAAIKGQNPNATFGEVSKIVLSMWDSLGEEQKQVYKRKTEAAKKEYLKALAAYR [A35L] reads -0.289 ± 0.068; that for QKPVSAYALFFRDTQAAIKGQNPNATFGEVSKIVDSMWDSLGEEQKQVYKRKTEAAKKEYLKALAAYR [A35D], -0.275 ± 0.12; that for QKPVSAYALFFRDTQAAIKGQNPNATFGEVSKIVFSMWDSLGEEQKQVYKRKTEAAKKEYLKALAAYR [A35F], -0.375 ± 0.11.
As for QKPVSAYALFFRDTQAAIKGQNPNATFGEVSKIVASWWDSLGEEQKQVYKRKTEAAKKEYLKALAAYR [M37W], the abundance fitness is -0.874 ± 0.12.
For QKPVSAYALFFRDTQAAIKGQNPNATFGEVSKIVASCWDSLGEEQKQVYKRKTEAAKKEYLKALAAYR [M37C], the abundance fitness was -0.186 ± 0.084.
On to QKPVSAYALFFRDTQAAIKGQNPNATFGEVSKIVASSWDSLGEEQKQVYKRKTEAAKKEYLKALAAYR [M37S], for which the abundance fitness was -0.265 ± 0.056.
